What was measured:
[1] = Immunogenicity in immunised mice: cytokine ELISA in BMDC/splenocyte co-cultures and humoral response; format: in vivo
Method: (§1) To assess the immunogenicity of the synthetic multi-epitope chimera characterised by SEQ ID NO: 5, inoculations were performed subcutaneously in three groups of mice (n=8/group). The animals of one group, referred to as Seq5, were inoculated with 50 µg of the synthetic chimera characterised by SEQ ID NO: 5 and 25 µg of saponin, as an adjuvant; the animals of another group, saponin control group, were inoculated with 25 µg of saponin; and the PBS control group was inoculated with PBS (buffer in which both the synthetic multi-epitope chimera characterised by SEQ ID NO: 5 and the adjuvant were transported). The inoculation was carried out on the left rear plantar pad on days 60, 45 and 30, with respect to day zero of infection, with a total volume of 50 µl.
The displacement of the immune response in the group immunised with the chimera characterised by SEQ ID NO: 5 correlates with increased leishmanicidal activity in target cells infected with Leishmania.
Use was made of virgin bone marrow-derived dendritic cells (BMDC) stimulated with soluble Leishmania antigen (SLA; produced with the supernatants obtained after having lysed cultures of Leishmania promastigotes obtained after sonication and subsequent centrifugation), grey bars; or stimulated with the chimera characterised by SEQ ID NO: 5, white bars; unstimulated BMDC was used as negative control, indicated as N-E with black bars. The BMDCs were co-cultured with spleen cells, splenocytes, of the animals previously immunised as indicated in example 3. Cytokine production (pg/ml) was quantified using the ELISA technique. The data are presented as the mean ± standard deviation (SD). The hash marks indicate statistically significant differences (#, P < 0.05; ##, P <0.001) between the immunised groups and the two control groups (Saponin and PBS). The asterisk indicates statistically significant differences (*, P < 0.05; **, P < 0.001).

[2] = tested on: BMDCs infected with L. infantum; assay: Leishmanicidal activity in L. infantum infected BMDCs co-cultured with splenocytes of immunised animals; format: cell-based, mice; details: 24 and 72 hours of postinfection incubation; versus Saponin and PBS control groups
Method: as §1
The leishmanicidal activity of the chimera characterised by SEQ ID NO: 5 (indicated in the figure as Seq5) was assessed in BMDC. Virgin BMDCs infected with L. infantum were co-cultured with splenocytes from animals previously immunised with the chimera characterised by SEQ ID NO: 5 as indicated in example 3, and with splenocytes from animals previously inoculated with the two controls used according to example 5. The parameters of infected cells and number of intracellular amastigotes were determined by optical microscopy. The data are presented as the mean ± SD. […]

L. infantum = assay: Protection against L. infantum in the murine model of visceral leishmaniasis; format: in vivo, mice; details: 6 weeks after i.v. infection with 5×10^5 L. infantum promastigotes; versus Saponin and PBS groups
Method: as §1
30 days after the last immunisation carried out as described in example 3, an infection was intravenously performed with 5×10^5 infective L. infantum promastigotes in the 3 groups of animals (which we have named Seq5, Saponin and PBS). 6 weeks after infection, the animals were euthanised and the parasite load in the VL target organs was assessed. The parasite count was carried out by decimal dilutions of spleen and liver macerates, separately, and their subsequent observation under a microscope. […]

[3] = splenocytes of immunised mice co-cultured with BMDC stimulated with the chimera or SLA, ELISA, versus Saponin and PBS controls

B1: … RFQSSAIMALQEITRGCVRRMARRGGVK (peptide)
chain: TAVLEYLTAELLELSRSLKAINAQMSMSHRTMKIVNSYVEGLRFQSSAIMALQEITRGCVRRMARRGGVK
modifications: Multi-epitopic chimera consisting of SEQ ID NO: 1, 2, 3 and 4 from Leishmania infantum
specific humoral response against the synthetic multi-epitope chimera (isotype) ([1]; mice immunised s.c. with 50 µg chimera and 25 µg saponin): redirection of the specific humoral response against the synthetic multi-epitope chimera to the IgG2a isotype
immune response profile ([1]; mice immunised s.c. with 50 µg chimera and 25 µg saponin, versus Saponin and PBS controls): protective Th1 cell response profile
production of IFN-γ [1, 3]: greater amount
production of IL-12 [1, 3]: greater amount
number of intracellular amastigotes detected per cell (No./BMDC) [2]: lower number
percentage of infected target cells (% BMDC) [2]: notable reduction
parasite load in the liver (H) (L. infantum): lower parasite load
parasite load in the spleen (B) (L. infantum): lower parasite load
